Here are results for 2 molecules from paper PMC10937380 (Nature, 2024).

In assay [1] the target is T1, E3mUU(ΔUFIM) with UFBP1(R265A) (UniProt O94874 1-179; Q96HY6 204-314, R265A).
T1 construct: UFL1; limits as stated for the crystallised E3mUU(ΔUFIM) construct; UFBP1 204-C; limits as for m14; source: recombinant, purified (HisTrap, HiLoad 26/600 Superdex 75 pg)
In words: SEC; analytical SEC, Superdex 200 Increase 3.2/300, 25 mM HEPES pH 7.5, 200 mM NaCl, 0.5 mM TCEP; components mixed and kept on ice before loading; peak fractions on Coomassie gels. The following applies: both partners purified. A general note: SEC sorts molecules by how far they enter the pores of the column.

The next assay addresses T2, E3mUU(ΔUFIM) (UniProt O94874 1-179; Q96HY6 204-314).
T2 construct: UFL1; limits as stated for the crystallised E3mUU(ΔUFIM) construct; for the crystal 6×His-TEV-UFL1(1–179) was co-expressed with a UFC1-UFBP1 204-C fusion and the His tag was not cleaved; source: recombinant, purified (HisTrap, HiLoad 26/600 Superdex 75 pg)
The assay is described as above. The conditions noted are these: both partners purified.

B1: UFC1 (enzyme)
chain: MADEATRRVVSEIPVLKTNAGPRDRELWVQRLKEEYQSLIRYVENNKNADNDWFRLESNKEGTRWFGKCWYIHDLLKYEFDIEFDIPITYPTTAPEIAVPELDGKTAKMYRGGKICLTDHFKPLWARNVPKFGLAHLMALGLGPWLAVEIPDLIQKGVIQHKEKCNQ
notes: free UFC1 in SEC and ITC; also called E2
Regarding B1, in assay [1], the binding result is recorded as “binds”.

B2: UFC1(D50A) (enzyme)
chain: MADEATRRVVSEIPVLKTNAGPRDRELWVQRLKEEYQSLIRYVENNKNAANDWFRLESNKEGTRWFGKCWYIHDLLKYEFDIEFDIPITYPTTAPEIAVPELDGKTAKMYRGGKICLTDHFKPLWARNVPKFGLAHLMALGLGPWLAVEIPDLIQKGVIQHKEKCNQ
Consider B2, for which the binding result with E3mUU(ΔUFIM) is reported as “binds”.
